Values of other authors as cited in paper PMC4620043.
Read-outs that look alike come from different tables or passages of the source.

Tests used:
fibrin (Homo sapiens) [1] = target: fibrin (Homo sapiens) (UniProt P02671)
fibrin (Homo sapiens) [2] = target: fibrin (Homo sapiens) (UniProt P02671); remark: listed apart in the source

Row | Substance | Kd (fibrin (Homo sapiens) [1]) | Kd (fibrin (Homo sapiens) [2])
1 | CREKA peptide | 6 µM | –
2 | GPRPP peptide | – | 0.008 µM
